Measured values published in patent publication US20260193293A1, “PEPTIDES CAPABLE OF INHIBITING PROTEIN-PROTEIN INTERACTIONS AT GABAB1A SUBUNIT AND USES THEREOF” (UNIVERSITY OF COPENHAGEN, priority 2022, published 2026).
Non-standard residues stand in square brackets, D forms with d. NMeW = CN[C@@H](Cc1c[nH]c2ccccc12)C(=O)O; NMeF = CN[C@@H](Cc1ccccc1)C(=O)O; NMeI = CC[C@H](C)[C@H](NC)C(=O)O; NMeT = CN[C@H](C(=O)O)[C@@H](C)O; NMeE = CN[C@@H](CCC(=O)O)C(=O)O; NMeD = CN[C@@H](CC(=O)O)C(=O)O; Sar = CNCC(=O)O

Molecular target: Sushi domains (SD1/2) protein of the GABAB1a (GB1a) subunit, recombinant
Assay: FP competition

Sushi domains (SD1/2) protein of the GABAB1a (GB1a) subunit, recombinant, sequence (Q9Z0U4 29-158): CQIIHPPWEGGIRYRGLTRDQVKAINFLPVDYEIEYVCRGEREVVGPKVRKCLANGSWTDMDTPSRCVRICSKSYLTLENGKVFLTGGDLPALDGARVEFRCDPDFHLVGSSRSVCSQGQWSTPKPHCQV

Row | Binder | Ki [nM]
1 | Ac-ET[NMeE]FIAWGPTGDED-NH2 (SMILES CC[C@H](C)[C@H](NC(=O)[C@H](Cc1ccccc1)NC(=O)[C@H](CCC(=O)O)N(C)C(=O)[C@@H](NC(=O)[C@H](CCC(=O)O)NC(C)=O)[C@@H](C)O)C(=O)N[C@@H](C)C(=O)N[C@@H](Cc1c[nH]c2ccccc12)C(=O)NCC(=O)N1CCC[C@H]1C(=O)N[C@H](C(=O)NCC(=O)N[C@@H](CC(=O)O)C(=O)N[C@@H](CCC(=O)O)C(=O)N[C@@H](CC(=O)O)C(N)=O)[C@@H](C)O) [ET(N-Me-E)…] | 159
2 | Ac-ETEFIA[NMeW]GPTGDED-NH2 (SMILES CC[C@H](C)[C@H](NC(=O)[C@H](Cc1ccccc1)NC(=O)[C@H](CCC(=O)O)NC(=O)[C@@H](NC(=O)[C@H](CCC(=O)O)NC(C)=O)[C@@H](C)O)C(=O)N[C@@H](C)C(=O)N(C)[C@@H](Cc1c[nH]c2ccccc12)C(=O)NCC(=O)N1CCC[C@H]1C(=O)N[C@H](C(=O)NCC(=O)N[C@@H](CC(=O)O)C(=O)N[C@@H](CCC(=O)O)C(=O)N[C@@H](CC(=O)O)C(N)=O)[C@@H](C)O) [ETEFIA(N-Me-W)GPTGDED] | 46
3 | Ac-AWAIVWGPTVSRED-NH2 | 552
4 | Ac-ETEFIAWGPT[dA]DED-NH2 (SMILES CC[C@H](C)[C@H](NC(=O)[C@H](Cc1ccccc1)NC(=O)[C@H](CCC(=O)O)NC(=O)[C@@H](NC(=O)[C@H](CCC(=O)O)NC(C)=O)[C@@H](C)O)C(=O)N[C@@H](C)C(=O)N[C@@H](Cc1c[nH]c2ccccc12)C(=O)NCC(=O)N1CCC[C@H]1C(=O)N[C@H](C(=O)N[C@H](C)C(=O)N[C@@H](CC(=O)O)C(=O)N[C@@H](CCC(=O)O)C(=O)N[C@@H](CC(=O)O)C(N)=O)[C@@H](C)O) […aDED] | 54
5 | Ac-ETEFIAWGP[NMeT]GDED-NH2 (SMILES CC[C@H](C)[C@H](NC(=O)[C@H](Cc1ccccc1)NC(=O)[C@H](CCC(=O)O)NC(=O)[C@@H](NC(=O)[C@H](CCC(=O)O)NC(C)=O)[C@@H](C)O)C(=O)N[C@@H](C)C(=O)N[C@@H](Cc1c[nH]c2ccccc12)C(=O)NCC(=O)N1CCC[C@H]1C(=O)N(C)[C@H](C(=O)NCC(=O)N[C@@H](CC(=O)O)C(=O)N[C@@H](CCC(=O)O)C(=O)N[C@@H](CC(=O)O)C(N)=O)[C@@H](C)O) […(N-Me-T)GDED] | 77
6 | Ac-ETEFIAWGPT[Sar]DED-NH2 (SMILES CC[C@H](C)[C@H](NC(=O)[C@H](Cc1ccccc1)NC(=O)[C@H](CCC(=O)O)NC(=O)[C@@H](NC(=O)[C@H](CCC(=O)O)NC(C)=O)[C@@H](C)O)C(=O)N[C@@H](C)C(=O)N[C@@H](Cc1c[nH]c2ccccc12)C(=O)NCC(=O)N1CCC[C@H]1C(=O)N[C@H](C(=O)N(C)CC(=O)N[C@@H](CC(=O)O)C(=O)N[C@@H](CCC(=O)O)C(=O)N[C@@H](CC(=O)O)C(N)=O)[C@@H](C)O) […(N-Me-G)DED] | 132
7 | Ac-ETE[dF]IAWGPTGDED-NH2 [ETEf…] | 930
8 | Ac-E[dT]EFIAWGPTGDED-NH2 [Et…] | 56
9 | Ac-ETEFIAW[dA]PTGDED-NH2 [ETEFIAWaPTGDED] | 5400
10 | Ac-ET[dE]FIAWGPTGDED-NH2 [ETe…] | 178
11 | Ac-[dE]TEFIAWGPTGDED-NH2 (SMILES CC[C@H](C)[C@H](NC(=O)[C@H](Cc1ccccc1)NC(=O)[C@H](CCC(=O)O)NC(=O)[C@@H](NC(=O)[C@@H](CCC(=O)O)NC(C)=O)[C@@H](C)O)C(=O)N[C@@H](C)C(=O)N[C@@H](Cc1c[nH]c2ccccc12)C(=O)NCC(=O)N1CCC[C@H]1C(=O)N[C@H](C(=O)NCC(=O)N[C@@H](CC(=O)O)C(=O)N[C@@H](CCC(=O)O)C(=O)N[C@@H](CC(=O)O)C(N)=O)[C@@H](C)O) [e…] | 46
12 | Ac-ETE[NMeF]IAWGPTGDED-NH2 (SMILES CC[C@H](C)[C@H](NC(=O)[C@H](Cc1ccccc1)N(C)C(=O)[C@H](CCC(=O)O)NC(=O)[C@@H](NC(=O)[C@H](CCC(=O)O)NC(C)=O)[C@@H](C)O)C(=O)N[C@@H](C)C(=O)N[C@@H](Cc1c[nH]c2ccccc12)C(=O)NCC(=O)N1CCC[C@H]1C(=O)N[C@H](C(=O)NCC(=O)N[C@@H](CC(=O)O)C(=O)N[C@@H](CCC(=O)O)C(=O)N[C@@H](CC(=O)O)C(N)=O)[C@@H](C)O) [ETE(N-Me-F)…] | 252
13 | Ac-ETEFIAWGPTGAED-NH2 | 50
14 | Ac-ETEFIAWGPAGDED-NH2 | 89
15 | Ac-ETEFIAWG[dP]TGDED-NH2 [ETEFIAWGpTGDED] | 352

Continued by falling Ki, values first:

Row | Ki [nM] | Binder
16 | 45 | Ac-ETEFIAWGPTG[NMeD]ED-NH2 (SMILES CC[C@H](C)[C@H](NC(=O)[C@H](Cc1ccccc1)NC(=O)[C@H](CCC(=O)O)NC(=O)[C@@H](NC(=O)[C@H](CCC(=O)O)NC(C)=O)[C@@H](C)O)C(=O)N[C@@H](C)C(=O)N[C@@H](Cc1c[nH]c2ccccc12)C(=O)NCC(=O)N1CCC[C@H]1C(=O)N[C@H](C(=O)NCC(=O)N(C)[C@@H](CC(=O)O)C(=O)N[C@@H](CCC(=O)O)C(=O)N[C@@H](CC(=O)O)C(N)=O)[C@@H](C)O) […(N-Me-D)ED]
17 | 44 | Ac-ETEFIAWGPTGDEA-NH2
18 | 44 | Ac-ETEFIAWGPTGD[dE]D-NH2 […eD]
19 | 39 | Ac-ETEFIAWGPTGDE[dD]-NH2 […d]
20 | 38 | Ac-ETEFIAWGPTGDAD-NH2
21 | 37 | Ac-E[NMeT]EFIAWGPTGDED-NH2 (SMILES CC[C@H](C)[C@H](NC(=O)[C@H](Cc1ccccc1)NC(=O)[C@H](CCC(=O)O)NC(=O)[C@H]([C@@H](C)O)N(C)C(=O)[C@H](CCC(=O)O)NC(C)=O)C(=O)N[C@@H](C)C(=O)N[C@@H](Cc1c[nH]c2ccccc12)C(=O)NCC(=O)N1CCC[C@H]1C(=O)N[C@H](C(=O)NCC(=O)N[C@@H](CC(=O)O)C(=O)N[C@@H](CCC(=O)O)C(=O)N[C@@H](CC(=O)O)C(N)=O)[C@@H](C)O) [E(N-Me-T)…]
22 | 35 | Ac-[NMeE]TEFIAWGPTGDED-NH2 (SMILES CC[C@H](C)[C@H](NC(=O)[C@H](Cc1ccccc1)NC(=O)[C@H](CCC(=O)O)NC(=O)[C@@H](NC(=O)[C@H](CCC(=O)O)N(C)C(C)=O)[C@@H](C)O)C(=O)N[C@@H](C)C(=O)N[C@@H](Cc1c[nH]c2ccccc12)C(=O)NCC(=O)N1CCC[C@H]1C(=O)N[C@H](C(=O)NCC(=O)N[C@@H](CC(=O)O)C(=O)N[C@@H](CCC(=O)O)C(=O)N[C@@H](CC(=O)O)C(N)=O)[C@@H](C)O) [(N-Me-E)…]
23 | 33 | Ac-ETEF[NMeI]AWGPTGDED-NH2 (SMILES CC[C@H](C)[C@@H](C(=O)N[C@@H](C)C(=O)N[C@@H](Cc1c[nH]c2ccccc12)C(=O)NCC(=O)N1CCC[C@H]1C(=O)N[C@H](C(=O)NCC(=O)N[C@@H](CC(=O)O)C(=O)N[C@@H](CCC(=O)O)C(=O)N[C@@H](CC(=O)O)C(N)=O)[C@@H](C)O)N(C)C(=O)[C@H](Cc1ccccc1)NC(=O)[C@H](CCC(=O)O)NC(=O)[C@@H](NC(=O)[C@H](CCC(=O)O)NC(C)=O)[C@@H](C)O) [ETEF(N-Me-I)…]
24 | 32 | Ac-ETEFIAWG[Sar]TGDED-NH2 (SMILES CC[C@H](C)[C@H](NC(=O)[C@H](Cc1ccccc1)NC(=O)[C@H](CCC(=O)O)NC(=O)[C@@H](NC(=O)[C@H](CCC(=O)O)NC(C)=O)[C@@H](C)O)C(=O)N[C@@H](C)C(=O)N[C@@H](Cc1c[nH]c2ccccc12)C(=O)NCC(=O)N(C)CC(=O)N[C@H](C(=O)NCC(=O)N[C@@H](CC(=O)O)C(=O)N[C@@H](CCC(=O)O)C(=O)N[C@@H](CC(=O)O)C(N)=O)[C@@H](C)O) [peptide 38 (Ac-ETEFIAWG(N-Me-G)TGDED-NH2)]
25 | 31 | Ac-ETEFIAWGPTGD[NMeE]D-NH2 (SMILES CC[C@H](C)[C@H](NC(=O)[C@H](Cc1ccccc1)NC(=O)[C@H](CCC(=O)O)NC(=O)[C@@H](NC(=O)[C@H](CCC(=O)O)NC(C)=O)[C@@H](C)O)C(=O)N[C@@H](C)C(=O)N[C@@H](Cc1c[nH]c2ccccc12)C(=O)NCC(=O)N1CCC[C@H]1C(=O)N[C@H](C(=O)NCC(=O)N[C@@H](CC(=O)O)C(=O)N(C)[C@@H](CCC(=O)O)C(=O)N[C@@H](CC(=O)O)C(N)=O)[C@@H](C)O) […(N-Me-E)D]
26 | 29 | Ac-ETEFIAWGPTG[dD]ED-NH2 […dED]
27 | 29 | Ac-ETEFIAWGPTGDE[NMeD]-NH2 (SMILES CC[C@H](C)[C@H](NC(=O)[C@H](Cc1ccccc1)NC(=O)[C@H](CCC(=O)O)NC(=O)[C@@H](NC(=O)[C@H](CCC(=O)O)NC(C)=O)[C@@H](C)O)C(=O)N[C@@H](C)C(=O)N[C@@H](Cc1c[nH]c2ccccc12)C(=O)NCC(=O)N1CCC[C@H]1C(=O)N[C@H](C(=O)NCC(=O)N[C@@H](CC(=O)O)C(=O)N[C@@H](CCC(=O)O)C(=O)N(C)[C@@H](CC(=O)O)C(N)=O)[C@@H](C)O) […(N-Me-D)]
28 | 20 | Ac-ETEFIAWGPTADED-NH2
